Test results: US20240309104A1 (PROMETHEUS BIOSCIENCES, published 2024)
Several values for one entry are separate records, joined by “and”; a condition that tells them apart may be missing. Equal values may be shown once.

What was measured:
Assay in all cases: cell-based or functional assay
[1] = target: T1, TL1A produced by PBMCs in cynomolgus monkey whole blood (cynomolgus monkey, UniProt G7PRK8 72-251)
T1 sequence: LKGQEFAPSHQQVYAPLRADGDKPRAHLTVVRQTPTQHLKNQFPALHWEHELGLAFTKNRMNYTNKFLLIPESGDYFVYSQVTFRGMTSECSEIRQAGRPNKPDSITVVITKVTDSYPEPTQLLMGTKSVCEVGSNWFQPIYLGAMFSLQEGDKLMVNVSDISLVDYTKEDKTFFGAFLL

[2] = target: T2, recombinant human TL1A protein (human, UniProt O95150 72-251)
T2 sequence (looked up): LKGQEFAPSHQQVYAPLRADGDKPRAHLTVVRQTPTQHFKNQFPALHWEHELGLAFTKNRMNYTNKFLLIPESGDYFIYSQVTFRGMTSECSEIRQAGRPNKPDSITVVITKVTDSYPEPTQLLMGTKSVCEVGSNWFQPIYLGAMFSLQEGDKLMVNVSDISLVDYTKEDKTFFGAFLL

[3] = target: T3, recombinant cynomolgus monkey TL1A protein (cynomolgus monkey, UniProt G7PRK8 72-251)
T3 sequence: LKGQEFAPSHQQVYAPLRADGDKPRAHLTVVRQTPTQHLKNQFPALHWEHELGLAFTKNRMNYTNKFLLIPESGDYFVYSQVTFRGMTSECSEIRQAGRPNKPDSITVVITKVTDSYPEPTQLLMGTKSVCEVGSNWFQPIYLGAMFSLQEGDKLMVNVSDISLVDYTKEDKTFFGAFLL

B1: anti-TL1A antibody A219 (antibody, V domains shown)
VH: QVQLVQSGAEVKKPGASVKVSCKASGFDIQDTYMHWVKQRPGQGLEWMGRIDPASGHTKYDPKFQVRVTITRDTSTSTVYLELSSLRSEDTAVYYCARSGGLPDVWGQGTTVTVSS
VL: EIVLTQSPGTLSLSPGERATLSCRASSSVSYMYWYQQKPGQAPRPLIYATSNLASGIPDRFSGSGSGTDFTLTISRLEPEDFAVYYCQQWEGNPRTFGGGTKLEIK
inhibition of the IFN-γ response in monkey whole blood (mean IC50) [1]: 1.54 nM and 289 ng/mL | inhibition of TL1A-induced caspase activation in TF-1 cells (IC50) [2]: 0.27 nM | inhibition of TL1A-induced caspase activation in TF-1 cells (IC50) [3]: 0.59 nM
